Assay: yeast display, Sf9 membrane polyspecificity reagent, FACS + sequencing; frameworks hold sequencing errors
In short: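 Sorting gates, low and high (top ~1%), were placed on anti-HA fluorescence to track expression and on streptavidin fluorescence to track reagent binding. A clone's polyreactivity label is taken from the gate it came out of. The reagent was 10% biotinylated, detergent-solubilized Sf9 membrane, applied for 1 hour at 4 °C to galactose-induced yeast display cells.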
For “QVQLVESGGGLVQAGGSLRLSCAASGFIFQIYPMGWYRQAPGKERELVAAISSGGSTNYADSVKGRFTISRDNAKNTVYLQMNSLKPEDTAVYYCAAATHYWYFYSFKDKSGFRGYYWGQGTQVTVSS”, the “polyreactivity (PSR sort gate)” value was “high polyreactivity”.
With “QVQLVESGGGLVQAGGSLRLSCAASGFIFQRYAMGWYRQAPGKERELVAAISSGGGTNYADSVKGRFTISRDNAKNTVYLQMNSLKPEDTAVYYCARPYYVYSQSSDYWGQGTQVTVSS” the “polyreactivity (PSR sort gate)” value was “low polyreactivity”.
In the case of “QVQLVESGGGLVQAGGSLRLSCAASGFIFQRYAMGWYRQAPGKERELVAAISSSGGRTSYADSVKGRFTISRDNAKNTVYLQMNSLKPEDTAVYYCAAYPQGRWYVVWSGDYWGQGTQVTVSS”, the “polyreactivity (PSR sort gate)” value is reported as “high polyreactivity”.
In the case of “QVQLVESGGGLVQAGGSLRLSCAASGFIFQTNVMGWYRQAPGKERELVAAISSGDSTYYADSVKGRFTISRDNAKNTVYLQLNSLKPEDTAVYYCAADVLGTTTTVGGFNYWGQGTQVTVSS”, the “polyreactivity (PSR sort gate)” value is reported as “low polyreactivity”.
In the case of “QVQLVESGGGLVQAGGSLRLSCAASGFIFQYNAMGWYRQAPGKERELVAAITSRGGSTYYADSVKGRFTISRDNAKNTVFLQMNSLKPEDTAVYYCATRRSYLADYWGQGTQVTVSS”, the “polyreactivity (PSR sort gate)” value is reported as “high polyreactivity”.
In the case of “QVQLVESGGGLVQAGGSLRLSCAASGFIFRANAMGLYREAPGKERELVATISRSGGSTSYADSVKGRFTISRDNAKNTVYLQMNSLKPEDTAVYYCNKRTPYLRPIRDYWGQGTQVTVSS”, the “polyreactivity (PSR sort gate)” value is reported as “high polyreactivity”.
With “QVQLVESGGGLVQAGGSLRLSCAASGFIFRDNAMGWYRQAHGKERELVASIRSSGGRTYYADSVKGRFTISRDNAKNTVYLQMNSLKPEDTAVYYCARRWYPVTPYARMYYWGQGTQVTVSS” the “polyreactivity (PSR sort gate)” value was “low polyreactivity”.
For “QVQLVESGGGLVQAGGSLRLSCAASGFIFRDNAMGWYRQAPGKERELVAAISKSGGRTYYADSVKGRFTISRDNAKNTVYLQMNCLKPEDTAVYYCAADAYHFGRMDYWGQGTQVTVSS”, the “polyreactivity (PSR sort gate)” value was “high polyreactivity”.
In the case of “QVQLVESGGGLVQAGGSLRLSCAASGFIFRDYAMGWYRQAPGKEREFVAAITSRGGSTYYADSVKGRFTISRDNAKNTVYLQMNSLKPEDTAVYYCNRYWWAYGEYDYWGQGTQVTVSS”, the “polyreactivity (PSR sort gate)” value is reported as “high polyreactivity”.
For “QVQLVESGGGLVQAGGSLRLSCAASGFIFRDYAMGWYRQAPGKERELVAAISWSSDSTYYADSVKWRFTISRDNAKNTVYLQMNSLKPEDTAVYYCAAKGLRGYWWGFDYWGQGTQVTVSS”, the “polyreactivity (PSR sort gate)” value was “low polyreactivity”.
In the case of “QVQLVESGGGLVQAGGSLRLSCAASGFIFRFNAMGWYRQAPGKERELVAVIRWSSGSTYYADSVKGRFTISRDNAKNTVYLQMNSLKPEDTAVYYCAAYVVPAYYYWGQGTQVTVSS”, the “polyreactivity (PSR sort gate)” value is reported as “low polyreactivity”.
In the case of “QVQLVESGGGLVQAGGSLRLSCAASGFIFRGKAMGWYRQAPGKERELVAAISSRGGSTYYADSVKGRFTISRDNAKNSVYLQMNSLKPEDTAVYYCAAGSTSGYFRYYYWGQGTQVTVSS”, the “polyreactivity (PSR sort gate)” value is reported as “high polyreactivity”.
In the case of “QVQLVESGGGLVQAGGSLRLSCAASGFIFRINAMGWYRQAPGKERELVARITSGGSTYYADSVKGRFTISRDNAKNTVYLQMNSLKPEDTAVYYCAARVKYYGSQSRYYWGQVTQVTVSS”, the “polyreactivity (PSR sort gate)” value is reported as “high polyreactivity”.
For “QVQLVESGGGLVQAGGSLRLSCAASGFIFRKNAMGWYRQAPGKERELVAANSQSGGSTYYADSVKGRFTISRDNAKNTVYLQMNSLKPEDTAVYYCAARYDLPNWVGGREYNYWGQGTQVTVSS”, the “polyreactivity (PSR sort gate)” value was “high polyreactivity”.
With “QVQLVESGGGLVQAGGSLRLSCAASGFIFRKYAMGWFRQAPGKERELVAAISRGGGSTYYADSVKGRFTISRDNAKNTVYLQMNSLKPEDTAVYYCAVGIVQRDSRYYYWGQGTQVTVSS” the “polyreactivity (PSR sort gate)” value was “high polyreactivity”.
With “QVQLVESGGGLVQAGGSLRLSCAASGFIFRLYTMGLYRQAPGKERELVARITRGDSTNYADSVKGRFTISRDNAQNTVYLQMNCLYPEDTAVYYCAKLHRGLPYYSFYRGYYYWGQVTQVTVSS” the “polyreactivity (PSR sort gate)” value was “low polyreactivity”.
With “QVQLVESGGGLVQAGGSLRLSCAASGFIFRNYAMGWYRQAPGKERELVAAITRSGTSTYYADSVKGRFTISRDNAKNTVYLQMNSLKPEDTAVYYCAARAWSSRRRLMYYWGQGTQVTVSS” the “polyreactivity (PSR sort gate)” value was “high polyreactivity”.
In the case of “QVQLVESGGGLVQAGGSLRLSCAASGFIFRPYAMGWYRQAPGKERELVAAISFSGGSTYYADSVKGRFTISRDNAKNTVYLQMNSLIPEDTAVYYCAAVYYFSYWLGPDDYWGQGTQVTVSS”, the “polyreactivity (PSR sort gate)” value is reported as “low polyreactivity”.
In the case of “QVQLVESGGGLVQAGGSLRLSCAASGFIFRPYAMGWYRQAPGKERELVATIRWGASSTHYADSVKGRFTISRDNAKNTVYLQMNSLKPEDTAVYDCNADGWYGAVYWWFYGFDYWGQGTQVTVSS”, the “polyreactivity (PSR sort gate)” value is reported as “low polyreactivity”.
In the case of “QVQLVESGGGLVQAGGSLRLSCAASGFIFRQYAMGWYIQAPGKERELVAAITWSGTRTYYADSVKGRFTISRDNAKNTVYLQMNSLKPEDTAVYYCNAGYPKYGYDYWGQGTQVTVSS”, the “polyreactivity (PSR sort gate)” value is reported as “high polyreactivity”.
In the case of “QVQLVESGGGLVQAGGSLRLSCAASGFIFRQYAMGWYRQAPGKERELVAAISTGGGRTYYADSVKGRFTISRDNAKNTVYLQMNSLKPEDTAVYYCAVYYYKTYDYWGQGTQVTVSS”, the “polyreactivity (PSR sort gate)” value is reported as “high polyreactivity”.
For “QVQLVESGGGLVQAGGSLRLSCAASGFIFRRYAMGWYRQAPGKERELVAAITRSGGSTYYADSVKGRFTISRDNAMNTVYLQMNSLKPEDTAVYYCNARYARVVPRYYYWGQGTQVTVSS”, the “polyreactivity (PSR sort gate)” value was “high polyreactivity”.
With “QVQLVESGGGLVQAGGSLRLSCAASGFIFRRYTMGWYRQAPGKERELVATITRSVNTDYADSVKGRFTISRDNAKNTVYLHMNSLKPEDTAVYYCAARKYFYFPVAYDYWGQGTQVTVSS” the “polyreactivity (PSR sort gate)” value was “high polyreactivity”.
For “QVQLVESGGGLVQAGGSLRLSCAASGFIFRSNAMGWYRQAPGKEREFVAAISSRGGSTTYADSVKGRFTISRDNAKNSVYLQMNSLKPEDTAVYYCARDWYYYPQYRQRYYYWGQGTQVTVSS”, the “polyreactivity (PSR sort gate)” value was “high polyreactivity”.
With “QVQLVESGGGLVQAGGSLRLSCAASGFIFRSNAMGWYRQAPGKERELVAAISGRGCSTYYADSVKGRFTISRDNAKNTVYLQMNSLKPVDTAVYYCAKSTVWVLYGYWGQGTQVTVSS” the “polyreactivity (PSR sort gate)” value was “high polyreactivity”.
For “QVQLVESGGGLVQAGGSLRLSCAASGFIFRSNAMGWYRQAPWKEREFVAAITYSSGSTYYRNSVKGRFTISRDNAKNTVYLQMNSLKPEDTAVYYCATPVTNGFDYWGQGTQVTVSS”, the “polyreactivity (PSR sort gate)” value was “high polyreactivity”.
In the case of “QVQLVESGGGLVQAGGSLRLSCAASGFIFRSYAMGWYRQAPGKERELVAAISRSGGSTYYADSVKGRFTISRDNAKNTVYLQMNSLKPEDTAVYYCATDGGRSTARGYGHWGQGTQVTVSS”, the “polyreactivity (PSR sort gate)” value is reported as “high polyreactivity”.
In the case of “QVQLVESGGGLVQAGGSLRLSCAASGFIFRSYAMGWYRQAPGKERELVAVISRRGVNTHYADSVKGRFTISRDNAKNTVYLQMNSLKPEDTAVYYCAKGLTALGDYWGQGTQVTVSS”, the “polyreactivity (PSR sort gate)” value is reported as “high polyreactivity”.
For “QVQLVESGGGLVQAGGSLRLSCAASGFIFRTYAMGWYRQAPGKERELVAAITYSAGSTYYADSVKGRFTISRDNAKNTVYLQMNSLKPEDTAVYYCNVRKTWYGYSVTGRYDYWGQGTQVTVSS”, the “polyreactivity (PSR sort gate)” value was “low polyreactivity”.
With “QVQLVESGGGLVQAGGSLRLSCAASGFIFRWNAMGWYRQSPGKERELVATISNGGSTYYADSVKGRFTISRDNAKNSVYLQMNSLKPEDTAVYYCAADYWYFSISITDYDYWGQGTQVTVSS” the “polyreactivity (PSR sort gate)” value was “high polyreactivity”.
